The target of this experiment is T1, MYO10 motor domain 1-741 (Homo sapiens, UniProt Q9HD67).
T1 chain: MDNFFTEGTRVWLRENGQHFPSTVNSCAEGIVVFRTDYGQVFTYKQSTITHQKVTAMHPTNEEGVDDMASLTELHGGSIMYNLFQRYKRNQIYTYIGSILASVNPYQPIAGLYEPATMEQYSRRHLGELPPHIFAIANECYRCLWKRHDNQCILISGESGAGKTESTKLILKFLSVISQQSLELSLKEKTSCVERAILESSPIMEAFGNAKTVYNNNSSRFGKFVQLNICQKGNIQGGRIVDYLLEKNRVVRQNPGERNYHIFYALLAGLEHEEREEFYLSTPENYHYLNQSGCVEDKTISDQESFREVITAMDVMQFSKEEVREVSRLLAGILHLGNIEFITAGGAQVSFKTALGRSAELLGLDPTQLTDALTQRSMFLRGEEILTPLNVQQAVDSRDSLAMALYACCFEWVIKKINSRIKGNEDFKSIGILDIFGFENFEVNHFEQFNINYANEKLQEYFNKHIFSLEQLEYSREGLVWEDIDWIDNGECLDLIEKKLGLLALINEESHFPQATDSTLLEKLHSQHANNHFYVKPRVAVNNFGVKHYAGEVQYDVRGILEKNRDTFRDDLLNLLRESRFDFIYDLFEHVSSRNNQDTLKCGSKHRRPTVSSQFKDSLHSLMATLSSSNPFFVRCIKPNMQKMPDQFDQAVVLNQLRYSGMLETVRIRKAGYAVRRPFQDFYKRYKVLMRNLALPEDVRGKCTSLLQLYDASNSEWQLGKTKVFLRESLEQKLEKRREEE
Put plainly: MST.

This passage reports Kd results from article PMC13676896 (2026).

For orientation: Kd means the free concentration of one partner at which half of the binding sites on the other are occupied at equilibrium, for simple one-to-one binding. Low values mean higher affinity, high ones lower affinity.

B1: CCT8 (protein)
chain: ALHVPKAPGFAQMLKEGAKHFSGLEEAVYRNIQACKELAQTTRTAYGPNGMNKMVINHLEKLFVTNDAATILRELEVQHPAAKMIVMASHMQEQEVGDGTNFVLVFAGALLELAEELLRIGLSVSEVIEGYEIACRKAHEILPNLVCCSAKNLRDIDEVSSLLRTSIMSKQYGNEVFLAKLIAQACVSIFPDSGHFNVDNIRVCKILGSGISSSSVLHGMVFKKETEGDVTSVKDAKIAVYSCPFDGMITETKGTVLIKTAEELMNFSKGEENLMDAQVKAIADTGANVVVTGGKVADMALHYANKYNIMLVRLNSKWDLRRLCKTVGATALPRLTPPVLEEMGHCDSVYLSEVGDTQVVVFKHEKEDGAISTIVLRGSTDNLMDDIERAVDDGVNTFKVLTRDKRLVPGGGATEIELAKQITSYGETCPGLEQYAIKKFAEAFEAIPRALAENSGVKANEVISKLYAVHQEGNKNVGLDIEAEVPAVKDMLEAGILDTYLGKYWAIKLATNAAVTVLRVDQIIMAKPAGGPKPPSGKKDWDDDQND
Regarding B1, the Kd amounted to 1160 nM.
